T1: Quiescin-sulfhydryl oxidase (QSOX), recombinant human (human, UniProt O00391 30-709)
T1 construct: also called Human Qsox; recombinant QSOX
T1 sequence (looked up): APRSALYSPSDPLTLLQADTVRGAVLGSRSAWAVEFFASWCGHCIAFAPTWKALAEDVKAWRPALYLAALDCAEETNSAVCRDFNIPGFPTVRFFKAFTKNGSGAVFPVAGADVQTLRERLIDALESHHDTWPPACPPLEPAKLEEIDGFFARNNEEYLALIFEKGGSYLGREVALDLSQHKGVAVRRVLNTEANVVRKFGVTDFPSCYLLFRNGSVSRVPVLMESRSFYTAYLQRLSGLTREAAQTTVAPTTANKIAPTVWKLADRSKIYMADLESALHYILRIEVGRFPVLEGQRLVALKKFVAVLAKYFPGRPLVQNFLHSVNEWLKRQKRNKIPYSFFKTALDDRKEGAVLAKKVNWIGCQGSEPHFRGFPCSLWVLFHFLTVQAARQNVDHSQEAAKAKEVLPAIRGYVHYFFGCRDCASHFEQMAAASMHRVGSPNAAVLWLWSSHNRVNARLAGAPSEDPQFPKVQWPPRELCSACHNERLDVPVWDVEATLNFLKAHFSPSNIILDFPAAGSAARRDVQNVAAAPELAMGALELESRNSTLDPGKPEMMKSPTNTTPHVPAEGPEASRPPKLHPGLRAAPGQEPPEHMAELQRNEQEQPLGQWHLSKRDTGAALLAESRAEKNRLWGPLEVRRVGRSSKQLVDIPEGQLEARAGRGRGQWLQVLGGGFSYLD

B1: recombinant full-length human PrP, HuPrP(23-231) (natural protein)
chain: not shown
B2: recombinant full-length mouse PrP, MoPrP(23-230) (natural protein)
chain: not shown
notes: also called full-length moPrP (PrP23-231, in the abstract)

Biological target: T1, Quiescin-sulfhydryl oxidase (QSOX), …
Test: SPR; Biacore 3000; […]; 30 ul/min in PBS, 0.05% Tween 20, 3 mM EDTA at 25°C; 1:1 Langmuir model; […]
Conditions: both partners purified

Row | Binder | Kd [nM] | koff [s⁻¹] | kon [M⁻¹ s⁻¹]
1 | B1 | 1.7 | 2e-05 | 11800
2 | B2 | 2 | 6.81e-05 | 33400

From PMC5270677, “Quiescin-sulfhydryl oxidase inhibits prion formation in vitro” (Aging (Albany NY), 2016)
